From patent publication US20240262893A1 (APPLIED BIOMEDICAL SCIENCE INSTITUTE, published 2024)
Like-named read-outs stand apart in the source and are kept apart here.

Key:
[1] = molecular target: T1, SARS-CoV-2 (Wuhan-Hu-1) wild-type (WT) spike protein carried on pseudotyped virus or on live wild-type virus (SARS-CoV-2 (Wuhan-Hu-1), UniProt P0DTC2 14-1273); assay: cell-based or functional assay
[2] = molecular target: T2, parental receptor binding domain (RBD) protein (amino acids 319 to 541 of the spike protein) with c-terminal … (SARS-CoV-2 (Wuhan-Hu-1), UniProt P0DTC2 319-541); assay: ELISA, RBD coated, IgG detected with anti-human Fc-HRP
[3] = molecular target: T1, SARS-CoV-2 (Wuhan-Hu-1) wild-type (WT) …; assay: cell-based or functional assay; remark: listed apart in the source
[4] = molecular target: T3, SARS CoV-2 spike trimer protein from the parental Wuhan-Hu-1 isolate (extracellular domain, furin-cl (SARS-CoV-2 (Wuhan-Hu-1)))
[5] = molecular target: recombinant stabilized spike protein derived from the beta strain (formerly described as the South A (SARS-CoV-2 (B.1.351), UniProt P0DTC2 14-1208))
[6] = molecular target: T3, SARS CoV-2 spike trimer protein from …; remark: listed apart in the source
[7] = molecular target: T2, parental receptor binding domain (RBD) …
[8] = molecular target: T4, SARS-CoV-2 B.1.351 ('SA', beta) variant spike protein on pseudotyped virus or live virus (SARS-CoV-2 (B.1.351), UniProt P0DTC2 14-1273); assay: cell-based or functional assay
[9] = molecular target: SARS-CoV-2 spike protein variant 484K on pseudotyped virus (SARS-CoV-2, UniProt P0DTC2 14-1273); assay: cell-based or functional assay
[10] = molecular target: T4, SARS-CoV-2 B.1.351 ('SA', beta) variant …; assay: cell-based or functional assay; remark: listed apart in the source
[11] = molecular target: T3, SARS CoV-2 spike trimer protein from …; assay: ELISA, spike protein coated, IgG detected with anti-human Fc-HRP
[12] = molecular target: S protein of a SARS-CoV-2 delta lineage virus on pseudotyped virus (SARS-CoV-2 (delta lineage)); assay: cell-based or functional assay

B1: R2G3 ultralong CDR3 chimeric bovine-human IgG1 antibody (antibody)
VH: QVQLRESGPSLVKPSQTLSLTCAASGFSLSDKAVGWVRRAPGKALEWLGSIDTGGSTGYNPGLKSRLSITKDNSKSQVSLSISSVTSEDSATYYCATVHQKTAEGDKTCPDGYEHTCGCIGGCGCKRSACIGALCCQASLGGWLSDGETYTYEFHVDTWGQGLVVTVSS
VL: QAVLNQPSSVSGSLGQRVSITCSGSSSNVGNGYVSWYQLIPGSAPRTLIYGDTSRASGVPDRFSGSRSGNTATLTISSLQAEDEADYFCASAEDSSSNAVFGSGTTLTVL
- live SARS CoV-2 neutralization, ng/mL (quantity not given) [1]: 0.5 ng/mL
- pseudovirus neutralization, ng/mL (quantity not given) [1]: 0.2 ng/mL
- EC50 [2]: 0.056 nM
- pseudovirus neutralization IC50 (luciferase assay) [3]: > 1 ng/mL
- EC50 (read off the curve) [4]: ~0.01 nM
- EC50 (read off the curve) [5]: ~0.2 nM
- EC50 (read off the curve) [6]: ~0.4 nM
- EC50 (read off the curve) [7]: ~0.02 nM

B2: SKD ultralong CDR3 chimeric bovine-human IgG1 antibody (antibody)
VH: QVQLRESGPSLVKPSQTLSLTCTASGFSLSDKAVGWVRQAPGKALEWLGSIDTGGNTGYNPGLKSRLSITKDNSKSQVSLSVSSVTTEDSATYYCTTVHQRTSEKRSCPGGSSRRYPSGASCDVSGGACACYVSNCRGVLCPTLNEIVAYTYEWHVDAWGQGLLVTVSS
VL: QAVLNQPSSVSGSLGQRVSITCSGSSSNVGNGYVSWYQLIPGSAPRTLIYGDTSRASGVPDRFSGSRSGNTATLTISSLQAEDEADYFCASAEDSSSNAVFGSGTTLTVL
- pseudovirus neutralization, ng/mL (quantity not given) [8]: > 1000 ng/mL
- pseudovirus luciferase assay EC50 [9]: > 1 nM
- pseudovirus luciferase assay EC50 [10]: > 1 nM

B3: SKM ultralong CDR3 chimeric bovine-human IgG1 antibody (antibody)
VH: QVQLRESGPSLVKPSQTLSLTCTASGFSLSDKAVGWVRQAPGKALEWLGSIDTGGNTGYNPGLKSRLSITKDNSKSQVSLSVSSVTTEDSATYYCTTVHQETLRSCPDGYIDNSGCTADWGCAALDCWRRRFGYHSTDPSHYTGATYIYTYSLHIDAWGQGLLVTVSS
VL: QAVLNQPSSVSGSLGQRVSITCSGSSSNVGNGYVSWYQLIPGSAPRTLIYGDTSRASGVPDRFSGSRSGNTATLTISSLQAEDEADYFCASAEDSSSNAVFGSGTTLTVL
- pseudovirus neutralization, ng/mL (quantity not given) [8]: > 1000 ng/mL
- pseudovirus luciferase assay EC50 [9]: > 1 nM
- pseudovirus luciferase assay EC50 [10]: > 1 nM

B4: R4C1 ultralong CDR3 chimeric bovine-human IgG1 antibody (antibody)
VH: QVQLRESGPSLVKPSQTLSLTCTASGFSLSDKAVGWVRQAPGKPLEWLGSIDTAENTGYNPGLKSRLSITKDNSKSQVSLSVSSVTTEDSATYYCATVHQKTRKEKNCPDGYIYSSNTASGYDCGVWICRRVGSAFCSRTGDYTSPSEFDIYEFYVEGWGQGLLVTVSS
VL: QAVLNQPSSVSGSLGQRVSITCSGSSSNVGNGYVSWYQLIPGSAPRTLIYGDTSRASGVPDRFSGSRSGNTATLTISSLQAEDEADYFCASAEDSSSNAVFGSGTTLTVL
- pseudovirus neutralization, ng/mL (quantity not given) [1]: 99.9 ng/mL
- pseudovirus neutralization, ng/mL (quantity not given) [8]: 375 ng/mL

B5: SR3A3 ultralong CDR3 chimeric bovine-human IgG1 antibody (antibody)
VH: QVQLRESGPSLVKPSQTLSLTCTISGFSLSSYAVLWVRQAPGKPLEWLGSIDTAENTGYNPGLKSRLSITKDNSKSQVSLSVSSVTTEDSATYYCATVHQKTRKEKNCPDGYIYSSNITSGFDCGVWICRRVGSAFCSRTGDYTSPTELDIYEFYVEGWGQGVPVTVSS
VL: QAVLNQPSSVSGSLGQRVSITCSGSSSNVGNGYVSWYQLIPGSAPRTLIYGDTSRASGVPDRFSGSRSGNTATLTISSLQAEDEADYFCASAEDSSSNAVFGSGTTLTVL
- binding result [2]: binds
- EC50 [11]: 0.037 nM

B6: R2D9 ultralong CDR3 chimeric bovine-human IgG1 antibody (antibody)
VH: QVQLRESGPSLVKPSQTLSLTCTASGFSLSDKAIGWVRQAPGKALEWLGSIDTRGNTGYNPGLKSRLSITKDSSKSQVSLSVNSVTTEDSATYLCAIVQQITHKTCPNGYNWFDRCCSWDGTCGDGCCSNRAWPSGNGRADSSIGETYGYEFHVAAWGQGLLVTVSS
VL: QAVLNQPSSVSGSLGQRVSITCSGSSSNVGNGYVSWYQLIPGSAPRTLIYGDTSRASGVPDRFSGSRSGNTATLTISSLQAEDEADYFCASAEDSSSNAVFGSGTTLTVL
- pseudovirus neutralization, ng/mL (quantity not given) [1]: 0.26 ng/mL
- pseudovirus neutralization, ng/mL (quantity not given) [8]: 0.33 ng/mL
- pseudovirus neutralization, ng/mL (quantity not given) [12]: 0.32 ng/mL

B7: R2F12 ultralong CDR3 chimeric bovine-human IgG1 antibody (antibody)
VH: QVQLRESGPSLVKPSQTLSLTCTVSGFSLSDKAVGWVRRAPGKALEWLGSIDTGGMTGYNPGLKSRLSITKDNSKSQVSLSVNSVTTEDSATYYCATVDQKTKNACPDDFDYRCSCIGGCGCARKGCVGPLCCRSDLGGYLTDSPAYIYEWYIDLWGQGLLVTVSS
VL: QAVLNQPSSVSGSLGQRVSITCSGSSSNVGNGYVSWYQLIPGSAPRTLIYGDTSRASGVPDRFSGSRSGNTATLTISSLQAEDEADYFCASAEDSSSNAVFGSGTTLTVL
- EC50 [2]: 0.085 nM
- EC50 (read off the curve) [4]: ~0.02 nM
- EC50 (read off the curve) [5]: ~0.2 nM
- EC50 (read off the curve) [6]: ~0.3 nM
- EC50 [11]: 0.05 nM
- EC50 (read off the curve) [7]: ~0.03 nM

B8: R2C3 (R5C1) ultralong CDR3 chimeric bovine-human IgG1 antibody (antibody)
VH: QVQLRESGPSLVKPSQTLSLTCTASGFSLSDKPVGWVRQAPGKPLEWLGSIDTAENTGYNPGLKSRLSITKDNSKSQVSLSLSSVTTEDSATYYCATVHQKTRKEKSCPDGYLYSSNTGRGYDCGVWTCRRVGGEFCSATGDWTSPSEEDFYEFYVDTWGQGAPVTVSS
VL: QAVLNQPSSVSGSLGQRVSITCSGSSSNVGNGYVSWYQLIPGSAPRTLIYGDTSRASGVPDRFSGSRSGNTATLTISSLQAEDEADYFCASAEDSSSNAVFGSGTTLTVL
- EC50 (read off the curve) [5]: ~0.3 nM
- EC50 (read off the curve) [6]: ~0.3 nM
- EC50 [11]: 0.39 nM

B9: RBD F4 chimeric bovine-human IgG1 antibody (antibody, V domains shown)
VH: QVQLRESGPSLVKPSQTLSLTCTVSGFSLSSNGVVWVRQAPGKALEWLGDICSTGGTSFNPALKSRLSIAKDNSKSQVSLSVRSVTPEDTATYYCARSRGYDCYANVDALDYVDAWGQGLLVTVSS
VL: QAVLNQPSSVSGSLGQRVSITCSGSSSNVGNGYVSWYQLIPGSAPRTLIYGDTSRASGVPDRFSGSRSGNTATLTISSLQAEDEADYFCASAEDSSSNAVFGSGTTLTVL
- EC50 [2]: 0.03 nM
- EC50 [11]: 0.03 nM

B10: RBD A2 chimeric bovine-human IgG1 antibody (antibody, V domains shown)
VH: QVQLRESGPSLVKPLQILSLTCTVSGFSLSSNGVVWVRQAPGKALEWLGDICSTGGTSFNPALKSRLSIAKDNSKSQVSLSVRSVTPEDTATYYCARSRGYDCYANVDALDYVDAWGQGLLVTVSS
VL: QAVLNQPSSVSGSLGQRVSITCSGSSSNVGNGYVSWYQLIPGSAPRTLIYGDTSRASGVPDRFSGSRSGNTATLTISSLQAEDEADYFCASAEDSSSNAVFGSGTTLTVL
- EC50 [2]: 0.03 nM
- EC50 [11]: 0.024 nM

B11: RBD C6 chimeric bovine-human IgG1 antibody (antibody, V domains shown)
VH: QVQLRESGPSLVKPSQTLSLTCTVSGFSLSSNGVVWVRQAPGRPLEWLGDICSNGGTSFNPALKSRLSIAKDNSESQVSLTVRSVTPEDTATYYCARSRGYDCYAYVYALDTVDAWGQGLLVTVSS
VL: QAVLNQPSSVSGSLGQRVSITCSGSSSNVGNGYVSWYQLIPGSAPRTLIYGDTSRASGVPDRFSGSRSGNTATLTISSLQAEDEADYFCASAEDSSSNAVFGSGTTLTVL
- EC50 [2]: 0.03 nM
- EC50 [11]: 0.03 nM

B12: R2B1 chimeric bovine-human IgG1 antibody (antibody, V domains shown)
VH: QVQLRESGPSLVKPSQTLSLTCTVSGFSLSDNNVGWVRQAPGKALEWLGVMHNDGNKGYNPALKSRLSITKDSSKSQVSLSLSSVTSEDTATYYCTRDNARCDSWTYDSCDTWYRNSWHVDAWGQGLLVTVSS
VL: QAVLNQPSSVSGSLGQRVSITCSGSSSNVGNGYVSWYQLIPGSAPRTLIYGDTSRASGVPDRFSGSRSGNTATLTISSLQAEDEADYFCASAEDSSSNAVFGSGTTLTVL
- EC50 [2]: 0.52 nM
- EC50 [11]: 0.37 nM

B13: R2D6 chimeric bovine-human IgG1 antibody (antibody, V domains shown)
VH: QVQLRESGPSLVKPSQTLSLTCTTSGFSLSSYAVGWVRQAPGKALEWVGDIDYVGNTDYNPALKSRLSITKDNSKSQVSLVVSSVTAEDAATYYCAKYSGAYAYAACNYYGWRCAWESYIDAWGQGLLVTVSS
VL: QAVLNQPSSVSGSLGQRVSITCSGSSSNVGNGYVSWYQLIPGSAPRTLIYGDTSRASGVPDRFSGSRSGNTATLTISSLQAEDEADYFCASAEDSSSNAVFGSGTTLTVL
- EC50 [2]: 0.57 nM
- EC50 [11]: 0.41 nM
